This is an account of results in patent US20250011379A1.

Const. No. 66: HSA-GGSSGG-hCFI-GGSSGG-hCR1; CCP8; CCP9; CCP10-(SEQ ID NO: 33)-hFH; CCP19; CCP20, sequence (P17927 other isoform, or with tags, fused parts or gaps limits assumed): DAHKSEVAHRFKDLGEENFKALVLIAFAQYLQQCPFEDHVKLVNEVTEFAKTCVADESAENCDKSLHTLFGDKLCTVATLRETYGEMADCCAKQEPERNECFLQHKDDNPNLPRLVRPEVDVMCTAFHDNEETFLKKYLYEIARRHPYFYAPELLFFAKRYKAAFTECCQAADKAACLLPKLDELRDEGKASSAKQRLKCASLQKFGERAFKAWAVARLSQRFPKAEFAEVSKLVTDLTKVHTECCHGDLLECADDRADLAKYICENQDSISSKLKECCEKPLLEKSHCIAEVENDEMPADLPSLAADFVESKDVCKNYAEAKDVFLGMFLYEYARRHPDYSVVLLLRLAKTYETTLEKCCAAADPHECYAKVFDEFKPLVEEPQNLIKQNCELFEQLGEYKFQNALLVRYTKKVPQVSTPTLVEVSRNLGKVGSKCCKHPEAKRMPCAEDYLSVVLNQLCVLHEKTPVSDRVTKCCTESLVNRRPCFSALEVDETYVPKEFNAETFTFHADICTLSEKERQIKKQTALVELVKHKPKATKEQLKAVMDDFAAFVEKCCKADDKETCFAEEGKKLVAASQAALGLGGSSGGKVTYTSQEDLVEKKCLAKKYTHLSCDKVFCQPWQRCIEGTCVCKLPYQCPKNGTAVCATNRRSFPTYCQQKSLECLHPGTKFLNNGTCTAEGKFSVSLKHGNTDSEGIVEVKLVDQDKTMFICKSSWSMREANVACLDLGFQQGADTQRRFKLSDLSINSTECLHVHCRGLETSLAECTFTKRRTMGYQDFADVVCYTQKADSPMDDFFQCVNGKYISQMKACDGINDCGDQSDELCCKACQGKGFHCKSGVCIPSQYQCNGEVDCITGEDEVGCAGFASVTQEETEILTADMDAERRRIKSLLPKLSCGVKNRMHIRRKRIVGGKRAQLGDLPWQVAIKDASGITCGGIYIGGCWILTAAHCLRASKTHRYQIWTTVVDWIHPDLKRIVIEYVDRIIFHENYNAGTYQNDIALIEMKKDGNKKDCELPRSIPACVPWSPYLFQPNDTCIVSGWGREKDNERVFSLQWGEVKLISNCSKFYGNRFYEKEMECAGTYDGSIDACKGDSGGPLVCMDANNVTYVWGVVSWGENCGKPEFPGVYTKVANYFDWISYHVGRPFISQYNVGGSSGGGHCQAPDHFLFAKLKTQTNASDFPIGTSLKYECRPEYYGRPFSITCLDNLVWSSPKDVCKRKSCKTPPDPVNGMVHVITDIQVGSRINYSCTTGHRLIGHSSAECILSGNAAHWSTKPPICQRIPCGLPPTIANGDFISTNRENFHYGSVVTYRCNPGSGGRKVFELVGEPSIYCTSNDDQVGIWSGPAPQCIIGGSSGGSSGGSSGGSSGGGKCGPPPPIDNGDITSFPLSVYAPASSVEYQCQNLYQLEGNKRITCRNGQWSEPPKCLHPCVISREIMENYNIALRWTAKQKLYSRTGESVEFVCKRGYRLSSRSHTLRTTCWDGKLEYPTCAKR
human C4b (human), sequence (P0C0L5 20-1744): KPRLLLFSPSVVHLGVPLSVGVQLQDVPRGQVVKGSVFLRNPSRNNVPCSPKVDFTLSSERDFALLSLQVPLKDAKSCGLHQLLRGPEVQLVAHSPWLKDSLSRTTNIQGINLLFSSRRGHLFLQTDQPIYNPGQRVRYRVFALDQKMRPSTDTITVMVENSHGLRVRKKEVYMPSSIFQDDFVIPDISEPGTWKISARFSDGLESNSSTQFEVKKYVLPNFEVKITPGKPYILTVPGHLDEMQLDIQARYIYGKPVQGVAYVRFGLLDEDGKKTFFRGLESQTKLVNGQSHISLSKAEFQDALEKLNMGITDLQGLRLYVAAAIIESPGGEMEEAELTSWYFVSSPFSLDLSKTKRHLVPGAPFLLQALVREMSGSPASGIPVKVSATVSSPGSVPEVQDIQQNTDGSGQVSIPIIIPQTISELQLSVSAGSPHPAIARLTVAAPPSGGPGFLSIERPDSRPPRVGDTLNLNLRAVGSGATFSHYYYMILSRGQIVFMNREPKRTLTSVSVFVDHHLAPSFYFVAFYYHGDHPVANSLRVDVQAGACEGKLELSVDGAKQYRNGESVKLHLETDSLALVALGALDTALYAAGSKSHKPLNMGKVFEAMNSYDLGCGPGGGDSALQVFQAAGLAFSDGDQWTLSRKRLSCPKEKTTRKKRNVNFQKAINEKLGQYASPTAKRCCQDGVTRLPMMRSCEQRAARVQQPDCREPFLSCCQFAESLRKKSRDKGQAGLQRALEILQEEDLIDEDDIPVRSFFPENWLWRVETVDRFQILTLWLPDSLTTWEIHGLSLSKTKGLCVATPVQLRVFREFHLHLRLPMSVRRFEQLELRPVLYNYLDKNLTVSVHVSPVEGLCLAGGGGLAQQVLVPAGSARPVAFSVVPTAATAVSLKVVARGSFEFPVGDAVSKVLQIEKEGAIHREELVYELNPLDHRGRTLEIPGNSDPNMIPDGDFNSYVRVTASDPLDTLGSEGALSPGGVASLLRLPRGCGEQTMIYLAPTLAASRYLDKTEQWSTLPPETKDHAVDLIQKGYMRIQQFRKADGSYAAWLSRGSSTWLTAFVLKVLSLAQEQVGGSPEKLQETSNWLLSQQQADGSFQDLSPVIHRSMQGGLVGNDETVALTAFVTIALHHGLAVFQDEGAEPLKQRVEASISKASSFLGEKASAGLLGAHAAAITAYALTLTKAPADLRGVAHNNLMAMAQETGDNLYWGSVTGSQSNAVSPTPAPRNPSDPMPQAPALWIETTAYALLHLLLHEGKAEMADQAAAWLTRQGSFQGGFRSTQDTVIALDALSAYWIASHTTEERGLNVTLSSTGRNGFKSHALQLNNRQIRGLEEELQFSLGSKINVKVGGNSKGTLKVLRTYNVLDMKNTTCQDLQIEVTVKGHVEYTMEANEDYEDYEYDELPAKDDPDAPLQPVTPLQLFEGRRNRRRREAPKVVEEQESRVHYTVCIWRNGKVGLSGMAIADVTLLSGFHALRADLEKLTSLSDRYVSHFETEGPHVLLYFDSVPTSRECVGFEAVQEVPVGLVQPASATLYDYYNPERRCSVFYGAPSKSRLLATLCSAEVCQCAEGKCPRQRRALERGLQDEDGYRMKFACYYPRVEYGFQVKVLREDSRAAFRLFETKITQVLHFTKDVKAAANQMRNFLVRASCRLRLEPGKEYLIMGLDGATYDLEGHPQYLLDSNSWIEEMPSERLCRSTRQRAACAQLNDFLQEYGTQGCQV

The first assay addresses human C4b (human) (UniProt P0C0L5). Put plainly: cell-based or functional assay.
On to “Const. No. 71: HSA-…-Gorilla CFI (enzyme)”, for which the C4c EC50 was 679 nM.

With “Const. No. 74: HSA-…-Bovine CFI (enzyme)”, the C4c EC50 turned out to be 47.1 nM.

On to Const. No. 73: HSA-…-Chimp CFI (enzyme), for which the C4c EC50 is 1610 nM.

The target in a further assay is soluble human C3b (human) (UniProt P01024). Put plainly: cell-based or functional assay.
soluble human C3b (human), sequence (P01024 23-1663 limits assumed): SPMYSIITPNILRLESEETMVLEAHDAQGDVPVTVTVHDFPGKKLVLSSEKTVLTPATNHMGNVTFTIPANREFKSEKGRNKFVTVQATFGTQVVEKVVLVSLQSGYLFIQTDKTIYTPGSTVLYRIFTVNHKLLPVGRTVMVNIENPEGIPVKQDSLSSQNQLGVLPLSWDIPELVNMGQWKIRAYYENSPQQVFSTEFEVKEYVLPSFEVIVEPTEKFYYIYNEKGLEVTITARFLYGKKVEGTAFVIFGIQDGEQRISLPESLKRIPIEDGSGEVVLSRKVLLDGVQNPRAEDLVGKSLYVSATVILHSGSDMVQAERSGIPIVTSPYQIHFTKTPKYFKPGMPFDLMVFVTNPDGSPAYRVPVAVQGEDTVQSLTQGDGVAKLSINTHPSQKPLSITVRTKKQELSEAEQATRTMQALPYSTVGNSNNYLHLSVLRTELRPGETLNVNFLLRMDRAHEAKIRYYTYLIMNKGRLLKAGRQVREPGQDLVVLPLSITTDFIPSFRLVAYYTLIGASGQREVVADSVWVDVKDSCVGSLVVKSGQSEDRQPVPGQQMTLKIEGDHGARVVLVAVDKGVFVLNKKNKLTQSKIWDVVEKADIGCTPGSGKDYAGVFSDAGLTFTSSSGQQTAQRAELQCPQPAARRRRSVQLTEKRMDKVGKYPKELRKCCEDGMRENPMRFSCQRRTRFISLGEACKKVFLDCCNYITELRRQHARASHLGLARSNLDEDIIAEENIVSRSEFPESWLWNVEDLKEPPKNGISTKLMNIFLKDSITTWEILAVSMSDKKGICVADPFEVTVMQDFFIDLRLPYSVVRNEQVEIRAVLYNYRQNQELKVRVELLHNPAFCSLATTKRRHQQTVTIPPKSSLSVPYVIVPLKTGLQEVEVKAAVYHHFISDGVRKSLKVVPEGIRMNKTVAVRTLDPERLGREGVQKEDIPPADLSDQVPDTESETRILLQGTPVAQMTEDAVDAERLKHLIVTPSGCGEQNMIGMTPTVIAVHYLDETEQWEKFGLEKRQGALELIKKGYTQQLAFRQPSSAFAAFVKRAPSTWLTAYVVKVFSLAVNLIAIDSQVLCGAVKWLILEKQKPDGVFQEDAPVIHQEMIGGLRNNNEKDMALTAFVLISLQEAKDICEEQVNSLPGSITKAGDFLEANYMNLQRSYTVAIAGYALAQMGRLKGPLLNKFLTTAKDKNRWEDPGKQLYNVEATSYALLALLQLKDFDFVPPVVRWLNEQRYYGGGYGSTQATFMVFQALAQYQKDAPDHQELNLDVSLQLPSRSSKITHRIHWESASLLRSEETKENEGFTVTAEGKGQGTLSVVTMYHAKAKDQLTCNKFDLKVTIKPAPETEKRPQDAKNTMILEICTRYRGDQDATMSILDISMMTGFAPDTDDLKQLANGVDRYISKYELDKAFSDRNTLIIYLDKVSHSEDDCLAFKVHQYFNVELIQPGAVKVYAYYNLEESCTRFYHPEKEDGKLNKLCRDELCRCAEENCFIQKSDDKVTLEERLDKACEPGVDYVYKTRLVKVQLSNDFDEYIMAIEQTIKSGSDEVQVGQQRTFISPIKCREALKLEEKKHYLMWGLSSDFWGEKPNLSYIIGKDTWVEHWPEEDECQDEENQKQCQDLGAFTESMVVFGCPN
“Const. No. 35: HSA-GGSSGG-hCFI; R371E (enzyme)”: the iC3b EC50 was found to be 347 nM.

For “Const. No. 92: HSA-GGSSGG-hCFI; N422A (enzyme)”, the iC3b EC50 stood at 46.3 nM.

“Const. No. 72: HSA-…-Cyno CFI (from UniProt A0A650AXN4 19-583) (enzyme)” came in with an iC3b EC50 of 3.12 nM.

With “Const. No. 40: HSA-GGSSGG-hCFI; T59E (enzyme)”, the iC3b EC50 is 43.1 nM.

“Const. No. 60: HSA-GGSSGG-hCFI; K368D (enzyme)” yielded an iC3b EC50 of 156 nM.

Consider “Const. No. 71: HSA-…-Gorilla CFI (enzyme)”, for which the iC3b EC50 stood at 32.7 nM.

Consider “Const. No. 38: HSA-GGSSGG-hCFI; N52A (enzyme)”, for which the iC3b EC50 amounted to 39.8 nM.

“Const. No. 51: HSA-GGSSGG-hCFI; E416R (enzyme)”: the iC3b EC50 was 12.5 nM.

As for “Const. No. 56: HSA-GGSSGG-hCFI; D395A; D425A (enzyme)”, the iC3b EC50 was found to be 9.67 nM.

Substance “Const. No. 3: HSA-GGSSGG-hCFI; L307F (enzyme)” yielded an iC3b EC50 of 18.9 nM.

“Const. No. 74: HSA-…-Bovine CFI (enzyme)” showed an iC3b EC50 of 5.79 nM.

In turn, “Const. No. 28: HSA-GGSSGG-hCFI; E401A (enzyme)” came in with an iC3b EC50 of 11.8 nM.

“Const. No. 91: HSA-GGSSGG-hCFI; T377A; E457G; N531G (enzyme)” registered an iC3b EC50 of 6.69 nM.

Take “Const. No. 66: HSA-GGSSGG-hCFI-GGSSGG-hCR1; CCP8; CCP9; CCP10-(SEQ ID NO: 33)-hFH; CCP19; CCP20 (from UniProt P17927 491-684; P08603 1107-1231) (enzyme)”: the iC3b EC50 is 3.17 nM, the iC3b no cofactor EC50 was found to be 2.92 nM and the iC3b with cofactor EC50 was 3.2 nM.

“Const. No. 70: HSA-…-Rat CFI (from UniProt Q9WUW3 19-604) (enzyme)” displayed an iC3b EC50 of 17.5 nM.

Take “Const. No. 52: HSA-GGSSGG-hCFI; D395A (enzyme)”: the iC3b EC50 was 22.5 nM.

The substance “Const. No. 42: HSA-GGSSGG-hCFI; L73D (enzyme)” returned an iC3b EC50 of 168 nM.

The substance “Const. No. 41: HSA-GGSSGG-hCFI; L73F (enzyme)” came in with an iC3b EC50 of 31.4 nM.

For the substance “Const. No. 57: HSA-GGSSGG-hCFI; D395A; E416A (enzyme)”, the iC3b EC50 came out at 17.5 nM.

Substance “Const. No. 15: HSA-GGSSGG-hCFI; S499K (enzyme)” had an iC3b EC50 of 35.1 nM.

As to “Const. No. 34: HSA-GGSSGG-hCFI; H554K (enzyme)”, the iC3b EC50 was 8.7 nM.

Substance “Const. No. 26: HSA-GGSSGG-hCFI; E401K (enzyme)” gave an iC3b EC50 of 6.39 nM.

For “Const. No. 16: HSA-GGSSGG-hCFI; S499V (enzyme)”, the iC3b EC50 stood at 85.6 nM.

For the substance “Const. No. 22: HSA-GGSSGG-hCFI; R62A (enzyme)”, the iC3b EC50 came to 102 nM.

“Const. No. 37: HSA-GGSSGG-hCFI; K51R; N52A; A55P; T59M; R61G; F64Y (enzyme)” registered an iC3b EC50 of 20.3 nM.

For “Const. No. 49: HSA-GGSSGG-hCFI; Δ(V565) > VY (enzyme)”, the iC3b EC50 was determined as 89.2 nM.

“Const. No. 95: HSA linked with CFI (CFI-HSA), wild type (enzyme)” yielded an iC3b EC50 of 28.6 nM.

For “Const. No. 23: HSA-GGSSGG-hCFI; R62E (enzyme)”, the iC3b EC50 came out at 156 nM.

The substance “Const. No. 47: HSA-GGSSGG-hCFI; R484E (enzyme)” displayed an iC3b EC50 of 154 nM.

“Const. No. 6: HSA-GGSSGG-hCFI; L307Y (enzyme)”: the iC3b EC50 is 34.7 nM.

The substance “Const. No. 53: HSA-GGSSGG-hCFI; D395G (enzyme)” showed an iC3b EC50 of 20.7 nM.

In turn, “Const. No. 55: HSA-GGSSGG-hCFI; D395R (enzyme)” returned an iC3b EC50 of 12.4 nM.

As for “Const. No. 54: HSA-GGSSGG-hCFI; D395K (enzyme)”, the iC3b EC50 worked out at 7.38 nM.

Consider “Const. No. 27: HSA-GGSSGG-hCFI; E401R (enzyme)”, for which the iC3b EC50 stood at 6.26 nM.

For the substance “Const. No. 45: HSA-GGSSGG-hCFI; R484A (enzyme)”, the iC3b EC50 was determined as 61.1 nM.

Substance “Const. No. 58: HSA-GGSSGG-hCFI; D395A; E416A; D425A (enzyme)” yielded an iC3b EC50 of 8.15 nM.

In turn, “Const. No. 39: HSA-GGSSGG-hCFI; A55P (enzyme)” showed an iC3b EC50 of 31.4 nM.

In turn, “Const. No. 5: HSA-GGSSGG-hCFI; L307W (enzyme)” displayed an iC3b EC50 of 24.8 nM.

In turn, “Const. No. 14: HSA-GGSSGG-hCFI; S499A (enzyme)” registered an iC3b EC50 of 40.9 nM.

The substance “Const. No. 36: HSA-GGSSGG-hCFI; A342R (enzyme)” came in with an iC3b EC50 of 13.1 nM.

Regarding “Const. No. 2: HSA-GGSSGG-hCFI; F559H (enzyme)”, the iC3b EC50 came out at 28.6 nM.

The substance “Const. No. 50: HSA-GGSSGG-hCFI; E416K (enzyme)” showed an iC3b EC50 of 12.8 nM.

“Const. No. 59: HSA-GGSSGG-hCFI; N402D (enzyme)” had an iC3b EC50 of 24.9 nM.

Regarding “Const. No. 7: HSA-GGSSGG-hCFI; P433A (enzyme)”, the iC3b EC50 came to 15.8 nM.

As to “Const. No. 48: HSA-GGSSGG-hCFI; Δ(V565) > VG (enzyme)”, the iC3b EC50 stood at 1000 nM.

On to “Const. No. 21: HSA-GGSSGG-hCFI; K423R (enzyme)”, for which the iC3b EC50 turned out to be 30.5 nM.

The substance “Const. No. 4: HSA-GGSSGG-hCFI; L307H (enzyme)” had an iC3b EC50 of 21.4 nM.

In the case of Const. No. 73: HSA-…-Chimp CFI (enzyme), the iC3b EC50 was found to be 54.6 nM.

“Const. No. 33: HSA-GGSSGG-hCFI; H554F (enzyme)” displayed an iC3b EC50 of 16.4 nM.

Regarding “Const. No. 29: HSA-GGSSGG-hCFI; E401F (enzyme)”, the iC3b EC50 is 10.6 nM.
